Source: the DeepSol protein solubility set

Assay: soluble on expression in E. coli; label from the status in PepcDB or PDB records

Sequence	soluble on expression in E. coli
MAHHHHHHMSIYIQLTHDLSGTVTAVTIGDWILGILKEKNIQEYEVFFKKFLHIYQKQDKDSECNNRSEIFSLLLSASDFVFETLVETKKNNKIKVIIDNKESVKSYNEFYKEVEEYFVILISILQLEFKSVEELNNATNNFIKAIKNYNEFPELRLKILQLLYNSFNVNFSFRFPTFIAILQFCSQNNIFHNMLPYIKYIDDWIKEWNISTREKRHIYLIISQELKKLKKYEESYEHLKKHIYYYDNEHKDILNHPNSINASIELIVDAININNNIYFHEIINLHAIQNLQFIPQHQPLFDLLLIFYKYTINEFLVFKNKHGSDFFNKYNIDIQTCESKIYLLSIISLFNDHKVQNIQFISKQLNISVVQIENILVAAIGSGVIDAKIDQINQTVHMKTTILRNFDDENWKQLNNQITKYINNVQKILELTKHANK	not soluble
MAHHHHHHMSLVASQEGLTDLVPCNDQCGGDYTLYTFGQSEKEVTITAPLAPGTRGKSLRVDIKVRHLQIEVPGKGTILAGELYKPINVDDSTWCIQDGKELVVVLTKTNIEYEEWWPHVVIGERQIDLKTLKPPSIRFSDLDGGAQATVAKMMHEQHEKRTDPAFTNA	soluble
MAHHHHHHMSQEEILQQTTGPSVPGKGVIVDDGTMEDIIDKLRILRYEKDFCPRVKPPFKPLSKYYFSGPSSIDNPNAQFHYFTSLCSWLMGLAGHNFEPPGQFDDPNATSTNILGELRAMNISAPNLAPNRIRQGNGEAVLTILSVLSDHALLKKGFTVRSVDYTNVEKYDELDGVTDADDDNGIGEEVEDNVMIESDDEEELYVRATGERLVKEDAGVPLESEINAEEWNLEVERVGPLLQVRSDALQDWRSRIESAGVLLRAVEKMYPEVKADASTCGG	not soluble
MAHHHHHHMSQLAHNVNLSIFEPISHHRANRIVCTIGPSTQSVEALKGLIRSGMSVARMNFSHGSHEYHQTTINNLRAAATELGAHIGLALDTKGPEIRTGLFKDGGIALAPGDTVLVTSDPAFEKIGTKEKFYIEYPRLSITVRPGGFIYIDDGVLSLKVLSKEDEYTLKCYVNNAHFLTDRKGCNLPGCEVDLPAVSEKDREDLKFGVEQGIDMVFASFIRTAEQVQEVREALGEKGKDILIISKIENHQGVQNIDGIIEASDGIMVARGDLGVEIPAEKVVVAQMILISKCNVAGKPVICATQMLESMTTNPRPTRAEVSDVANAVFNGADCVMLSGETAKGKYPNEVVQYMARICLEAQSATNQAVMFNSIKKMQKLPMSPEEAVCSSAVNSVYEVRAKALLVLSNSGRSARLASKYRPDCPIICATTRMRTCRQLTITRSVDAVFYDAERYGEDENKEKRVQLGVDCAKKKGYVVPGDLMVVVHADHKVKGYPNQTRIIYVS	not soluble
MAHHHHHHMSRFPEARKQSVQVTRHCGIASQLVTEVNGRNLTHLSVLEQEMLASSNVTEHSRQMMDVVQDPKTDIDDALRMVMLYALRYEKVGGNNTAQLKEMLLKRNCPMERISLIDRLLEYGGADKRLHELFRTSTGHILKIVAKTVGQFGKDIQNVLTQHVPLMKKVINRVYNGTLSEQKYPVQEVVGSPISVSAVPTIRAKDIIIVMVGGVTYSEAMLLYQINQGQVSNNVESLMNLGKNVTRLVSGDSTAKSASGEPYTEKIEARVTLLSTSMIDSKDFIHSLPS	not soluble
MAHHHHHHMSRMPSTAARSQPYAFGPEGVMLDGGASEGRQNSVEALLAYCAARVAENPSWRTASWQQAGASNASAFRVPVSPRYLANASYAATGSPLCLRAGRIYLTDARIRAGIAEFQAAGLTVLPLTDDVLSRPSSRASKATVRVVPAMAVLLNGAWIATHFFHLVTDALEALRSAYQTWQDGVLLRIPTQTVLLHQPESNWMDRRGDTHGKMELSAALANAFSSPELARGSPYNSSFLFRSQSRHCAELEANATATMASPPPPRRQSPATVSTLCFCDGLLVTTHRLPVLERDILYGIQDWAARQFRASPYGVNRSVQEMERLRLQHALLSSTSTLWSIGTLTAPALSLSYKPRALFVHRTSRVIANASRYAGWMRAAGFRVEEVYLEKHTAAQQYHLGRYADIVVGMHGLGIGHAMWMERSPPRCRTVIEFRPWVIASMPTQPILILEGAMHYHFVTIPPIDVRFGPSVAHPAEERELLLSSARMVNAFRYPSFTDQIAIYDDERVKGVIADVRQHLERCLPP	not soluble
MAHHHHHHMSSKGAAMTPNGNGATHESRPGKKGRPPRRRADREAAGAHFDCGSSQTTEKGGDEYQYKHPKPRVLTSSLFMWEHVAVFSMPAQVAELERVSRDVARLLEDSNTGTHPMQRYWNAQWSRMVWREEELPDEKKYLAPTMLTRSDGKRKWKNVFVQEYPLYLKRVYQGKGVCNNAVNAAKVLFNRQVLNAAKTAAELERMELTVEEARVKEQKKRGVDVEFEETPDTAPSPPWLGCHHGSYPEKGERERHEKGRPRAVKKASHETYTRSDYKEDYRTGDRKGKHKKGGTGRWSKFDDFGDYDY	not soluble
MAHHHHHHMSSPAWSVYEGDWGSFCDDADNVPPTLSLKGCGLRQKCLLQRGAQGAVYLGEDADGNVFVVKRLFTQRSEFGVRGVSEGSLREATLLTYITERSKTLGPEPLFGVIRLERIVEAPFQELSLILERCAFNLSRMVFYSRKRAYSAAGLFPETPTRCPILAKMNVIQYLMRGILKILQFLHEECHIIHRDVKLGNLLVGEDGRVRLADFGSARFMHEPVEKMSDARSGEYTPISLRTTVIYQAPECLLGERSYTAAVDMWAAGVVFAELLLQQHLFHSCSELGMLSDIWKLLGTPSDDPSVCSGEGAVTYAVRTESTIERKFPERIVSAEGLDLLKRMLETNPKKRITDSEALRHPFLCGPAVESGMEEARRLWNKKVEACMQETVAQPAAMGMRSFYVDNVEFDEESGENDDDDGEIATLPTCLDCFPHILSDVNGRHDI	not soluble
MAHHHHHHMSVEEVQNAAAMADEEIPTLEAAEVPQNAKQSKRYAKAMAKMGLKPEPNITKVTIRKVGSLSFAMVQPEVYRFPGTNTFVIFGEAQLEDTSALAQEAAARAAVSGAASASSDAAASVPAAEEDDDEEVDAGDLDEKEINVVMSQANVSRSKAIKALKNNNGDIVNTIMELTM	soluble
MAHHHHHHMSVFAAARQRAAHYANRNPLFAKLNKTHLEYFNCVLREQCPKNKKPGRMLTDPNKIVSFNRDWMNQVEGECPVVLLPTSTQQVAAILRYCQSEKIGIVPQCGNTGLVYGSSALHDEVILSLREMNGDPVVSPQTMSTEAEAGVILQQLQEAAKTHDLLVPITMGSKGSAQIGGAVSTNAGGIHFARYGSMHANVLGLEVVTAQGEVLDMMSTLRKDNAGYDMKHLFIGSEGTLGVVTRVSLKLYPFPRSTQLALFRLTTFESVLELYRLAQEHLSECLSAFEVVDGESLSVTPQEELPFTRTSKSDTFRAGQDFTSAYFCVMVETNGSNAEHDMEKLSRFVEAAECNPRCVSKGDLGESFEPVLSQSLAQTAQLWNLREDTPVRLASAGTIYIFDVSFPLDKFYDIVLHFRKMIYKNGGFDPDEVLVVGYGHFGDGNIHLNVVDRTRKHSDALDAVLFPAVYEFCAAHSGSISAEHGVGVQKKAYLGFSRKPEVIALMRTLKRTMDPNGILNPYKVID	soluble
MAHHHHHHMTSFKDCLREVREAATEHLEGYRGGDTEKALQHIPREEALTTISLVAIRLLEQELPKRGAGNDASQHELHAQLRACRKALKSHSARSAAGDEGTSDKKRRRTEESTEAPTSSSYRGSATADRSGTSNSIELGQYASSDAFDQNEQKRMKFARLMGGAKVAAQGTGGAGGHSRHNTFAASNAELKRMNANLESQFESAMSHKGKKGLGA	soluble
MAHHHHHHMVFHLNIFNKGKRQNLVSAYLNHFKKSYFSGVTSGSDCVNKSEVSSDNNNNNNNNNNKIAHNFFSKKYQRNFENNNLSENQENNKNIIYSGSNIFKNIYNTEMMSNNNTVDVNMMDNNPAARLEELRTIMKKNKIDVYILINSDEHNSEIINEKDKKIVKITNYSGADGILIVTKDKPILYVNALYELQAMNELDQNLFTLRISRIDNRDEIFETISSLEFNTIAFDGKNTSVVFYEKLRKALLNAYPKKKIVEKIIYNNNFDDVNKKDDENVLNFLVLEKSLVEIKDYPVNNKTLYIHDRKYNGACAGEKIDKLKQSLMYDIKNVDNLLLSELDEIAYLLNLRGYDYQYSPLFYSYLLFQFDREEQDFSKIVFFTTVKNLPADVKNLLEINKVIVKEYEEIVPYLRDVVIPSIPKHNDDNPDFKKYDISLSPYINLMIYKLFDRKNVLLQNSPVVKMKAVKNDVEIDNMKQAHILDGLALLQFFHWCEQKRKTKELFNETEMSLRHKVDYFRSTKKNFIFPSFSTISASGPNAAVIHYECTDKTNATIKPAIYLLDSGGQYLHGTTDVTRTTHFGEPTAEEKRIYTLVLKGHLRLRKVIFASYTNSSALDFIARENLFNNFMDYNHGTGHGVGLTLNVHEGGCSIGPVGGAPLKKNMVLSNEPGYYMKDKFGVRIENMQYVISKEITDTTEYLSFDDLTMYPYEK	not soluble
MAHHHHHHMVSNVADVRQINLTDSSNFLLMACDGLWDVVENEEATQFVRDFLSYTPDVGSSPEATKRALNNCCQKLAEFAVDRGSTDNVSVMLLFFHDVADVVAGFDKPVGAVVSPPASQVLSPRLTGPSRGIPFGSSMLDGGLHTSSGTSGTRRPSFGSVSSLHGRGRSIW	not soluble
MAHHHHHHMVVSLIGPLDSPYVQRTLLVAAYAGIQLKLVPIQIGRENETEEYRLNCHPMQRVPVMKTDEGYLFESNAMIRYLARTEVMLVSVSAGIDSAGANNEKIPHPQYPIPYAMYGHSLLESTQVDSWLDFAITRIDFYTRQFFAYEHKTGPKPAADMKTLLCKSLDGLERRVAYLKEACRALVQQSGSLTSRSVMTDEELVWNEEDYMASRATRDSRLSSVYNVAGSIRQRHMEKERQEREKQLMLIKKTTDDALGKEEGADDPHHPSRRPSVSRDSMAISATPRASVLMSARSTMGSAAPGVQRHDLLFLVGGSLTAADLVMAMSLHGVLCCQELKPVLTSKYPNLFKYYKSVLMLPVAAEVRKAIRLSIIKE	soluble
MAHHHHHHMWRRAACQAVTSRFFRPAVAASTASSSSALRESCRTGIIIGNPKQGMIDPIHVSWTDIAGSDTTPGARLAAGRVLAMLDMCAARTSQKAIDHQDCLTHERYLTCTVGVTNTMFSSPILHGDAVRLDGRLVCCGSSSMGIYIRFYRQSPSTRTETPAGHSFFTMVAITPDLKAAKVVPAIELTDPLDIELHNHYVKVRKLQEENKKNTAERLKRTLTTEEVQCSINQQKPIHARINSTRVEANRIFFTSCMNNNNTVFGGELMAWMEQHAVHCGRMFTGNRYVFTIGMHSVAFPEPVFATDWVTLEATVIYVRNTTMEVDVVLKAERKDAGTVITNRASFVLINNDDIGRKCAIPIGLELNGATQEELQQFMEARVRYHCSVARRDDFHASNLCTGTTKL	not soluble
MAHHHHHHMYRNLFDKLKDGPLKISILGSGNWASAISKVVGTNAKNNYLFENEVRMWIRDEFVNGERMVDIINNKHENTKYLKGVPLPHNIVAHSDLASVINDADLLIFIVPCQYLESVLASIKESESIKIASHAKAISLTKGFIVKKNQMKLCSNYISDFLNIPCSALSGANIAMICGALKNIITLACGFCDGLNLPTNSKSAIIRNGINEMILFGKGTVTLKYVYHMIKEKNMTNEFPLFTVLHKISFENEDPSSLLKTFMNNKINQLNL	not soluble
MAHHHHHHMYVFRFHISSFHSFLVNFLQPSRGVGEPSRLLDHLETHPSYMRRVTSTAVHRTVSSVLSPALLPSFNGTLLLSVCFASCSAAPVRNLYKRLGLDHKATSEEVKAAYRQRALECHPDVVDDNRKAQAEVDFRAVSEAYDVLIDPQKRKEHDKALGLERTVPPAKKQQEGEGVGCDSKGSFNRGVTRPRNRKPFVRGDADRNFREAFHGMSLDQVLFRERLRQRRMQKQMEEKAKEGDDGSPAGREESIRRVAAAAAERFAEKVRRQYGPGMLRHARVYTSLSRDPQPPPSDYMPFRPFHGWTVPNGVRTPPEPTLGPTAKVEDVKDVQLAEPAVGDASHQRKLPKHFPVVQAPDGSSLLREEAIACMERERRLPHNMGKLYSYHRPY	not soluble
